Tests used:
Conditions in all cases: remark: other sources report otherwise
[1] = target: T1, human recombinant VEGFR2 (human), P35968; assay: SPR; BIAcore 3000, 25 °C, CM5 chip; receptor immobilised by amine coupling (~200-500 R.U.); ligand injected at 10, 20 and 40 nM, 30 uL/min, 10 min dissociation; HBS-EP pH 7.4 (10 mM HEPES, 3 mM EDTA, 150 mM NaCl, 0.005% TWEEN-20); angiopoietin-4 reference cell subtracted; global 1:1 Langmuir fit; χ2-to-Rmax > 1.0 or negative association curves taken as no true interaction
T1 chain: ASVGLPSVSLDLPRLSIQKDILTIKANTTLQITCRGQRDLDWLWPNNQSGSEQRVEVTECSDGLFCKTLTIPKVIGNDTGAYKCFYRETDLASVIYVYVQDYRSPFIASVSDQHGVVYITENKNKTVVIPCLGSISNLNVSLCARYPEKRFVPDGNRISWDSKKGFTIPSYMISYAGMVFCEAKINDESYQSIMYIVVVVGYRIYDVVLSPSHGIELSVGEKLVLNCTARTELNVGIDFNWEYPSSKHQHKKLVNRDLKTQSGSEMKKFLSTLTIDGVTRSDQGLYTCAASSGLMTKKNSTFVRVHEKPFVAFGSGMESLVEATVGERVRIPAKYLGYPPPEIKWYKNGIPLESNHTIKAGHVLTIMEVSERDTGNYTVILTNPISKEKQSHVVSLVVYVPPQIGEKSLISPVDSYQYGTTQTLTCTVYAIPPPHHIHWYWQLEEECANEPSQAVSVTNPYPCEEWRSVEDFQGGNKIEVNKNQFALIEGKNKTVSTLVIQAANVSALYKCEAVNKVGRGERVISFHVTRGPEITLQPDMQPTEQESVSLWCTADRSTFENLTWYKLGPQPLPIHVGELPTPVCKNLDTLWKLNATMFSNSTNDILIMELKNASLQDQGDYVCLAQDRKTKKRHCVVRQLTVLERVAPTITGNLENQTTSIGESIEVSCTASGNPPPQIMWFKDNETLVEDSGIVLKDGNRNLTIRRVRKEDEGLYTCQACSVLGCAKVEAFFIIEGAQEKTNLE

[2] = target: T2, human recombinant PDGFRβ (human), P09619; assay: SPR; BIAcore 3000, 25 °C, CM5 chip; receptor immobilised by amine coupling (~200-500 R.U.); ligand injected at 40, 20 and 10 nM in HBS-EP pH 7.4 (10 mM HEPES, 3 mM EDTA, 150 mM NaCl, 0.005% TWEEN-20); angiopoietin-4 reference cell subtracted; global 1:1 Langmuir fit; χ^2-to-Rmax < 1.0 taken as a true interaction
T2 chain: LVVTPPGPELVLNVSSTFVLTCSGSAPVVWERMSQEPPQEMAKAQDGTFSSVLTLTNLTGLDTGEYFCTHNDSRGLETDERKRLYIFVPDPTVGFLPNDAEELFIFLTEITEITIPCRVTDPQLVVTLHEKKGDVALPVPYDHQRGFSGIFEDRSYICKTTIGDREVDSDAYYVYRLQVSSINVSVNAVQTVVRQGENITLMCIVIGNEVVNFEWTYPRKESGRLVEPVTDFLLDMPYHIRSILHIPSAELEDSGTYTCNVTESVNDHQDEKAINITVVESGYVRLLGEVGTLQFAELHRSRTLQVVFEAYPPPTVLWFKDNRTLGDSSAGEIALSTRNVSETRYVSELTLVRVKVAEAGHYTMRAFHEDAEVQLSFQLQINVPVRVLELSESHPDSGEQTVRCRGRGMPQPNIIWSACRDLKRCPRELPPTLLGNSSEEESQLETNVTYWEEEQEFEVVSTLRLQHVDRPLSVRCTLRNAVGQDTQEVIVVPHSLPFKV

[3] = target: T1, human recombinant VEGFR2 (human), P35968; assay: as above

B1: human recombinant PDGF-CC, Q9NRA1 23-345 (ligand)
chain: VVDLNLLTEEVRLYSCTPRNFSVSIREELKRTDTIFWPGCLLVKRCGGNCACCLHNCNECQCVPSKVTKKYHEVLQLRPKTGVRGLHKSLTDVALEHHEECDCVCRGSTGG
modifications: here or on the partner: disulfide-linked homodimer; limits not given, active growth factor domain after cleavage at Arg234 taken by convention
Binder B1 has a koff [1] of 2.6e-05 s⁻¹ and a kon [1] of 36000 M⁻¹ s⁻¹.

B2: human recombinant PDGF-CC, Q9NRA1 235-345 (ligand)
chain: B1 chain
For B2, the Kd [2] was 1900 pM and the Kd [3] was 70 pM.
